Data on two substances can be found in patent publication US20140302043A1.

For this assay, the target named is hemagglutinin (HA) of H1N1 virus strain A/Brazil/1403/2003 (influenza A virus H1N1, A/Brazil/1403/2003). Nature of the assay: cell-based or functional assay.

Consider “mAb CH65, recombinant intact IgG1 (antibody)”, for which the mAb minimum effective concentration (EC99, microneutralization on MDCK cells) was determined as 3.12 µg/mL. To mAb CH67 (antibody) belongs 0.195 µg/mL.
